First the molecules themselves.
B1: mRNA-splicing (parent)
chain: AGUUGCUGCUGGGAGCUCCAGCACAGUGAAAUGGACAGAAGGGCAGAGCAA

Variants of B1 are the subject of this data set. The data set can be described thus: exon inclusion enrichment index; higher = more inclusion; WT1 exon 5 minigene, HEK293.
With G5U G8U C9U C16A, the “exon inclusion enrichment index” value turned out to be 0.141.

Regarding G5U G8U C9U C16G, the “exon inclusion enrichment index” value was 0.0374.

On to G5U G8U C9U C19U A20G, for which the “exon inclusion enrichment index” value turned out to be 0.0101.

Regarding G5U G8U C9U C19U A20C, the “exon inclusion enrichment index” value turned out to be 0.0318.

Consider G5U G8U C9U C19U A20U, for which the “exon inclusion enrichment index” value worked out at 0.0205.

For the variant G5U G8U C9U C22A A23C, the “exon inclusion enrichment index” value is 0.435.

Regarding G5U G8U C9U C22A A23U, the “exon inclusion enrichment index” value came to 0.0576.

With G5U G8U C9U C22A A23G, the “exon inclusion enrichment index” value was 0.141.

On to G5U G8U C9U G34U A35U, for which the “exon inclusion enrichment index” value was 0.0186.

G5U G8U C9U G34U A35G: the “exon inclusion enrichment index” value was 0.0289.

As for G5U G8U C9U G34U A35C, the “exon inclusion enrichment index” value was found to be 0.0387.

In the case of G5U G8U C9U G13U, the “exon inclusion enrichment index” value is 0.00294.

As for G5U G8U C9U G13C, the “exon inclusion enrichment index” value turned out to be 0.0102.

Regarding G5U G8U C9U G13A, the “exon inclusion enrichment index” value turned out to be 0.0771.

Take G5U G8U C9U C36A A37U: the “exon inclusion enrichment index” value worked out at 0.0263.

On to G5U G8U C9U C36A A37G, for which the “exon inclusion enrichment index” value was found to be 0.0549.

In the case of G5U G8U C9U C36A A37C, the “exon inclusion enrichment index” value was found to be 0.21.

As for G5U G8U C9U G43A, the “exon inclusion enrichment index” value was 0.671.

Consider G5U G8U C9U C18G C19A, for which the “exon inclusion enrichment index” value was determined as 0.159.

Consider G5U G8U C9U C18G C19U, for which the “exon inclusion enrichment index” value is 0.00531.

In the case of G5U G8U C9U C18G C19G, the “exon inclusion enrichment index” value was 0.195.

For G5U G8U C9U C24G A25G, the “exon inclusion enrichment index” value came to 0.0358.

As for G5U G8U C9U C24G A25C, the “exon inclusion enrichment index” value came out at 0.663.

Take G5U G8U C9U C24G A25U: the “exon inclusion enrichment index” value is 0.208.

Take G5U G8U C9U G41C G42C: the “exon inclusion enrichment index” value worked out at 0.753.

Take G5U G8U C9U G41C G42U: the “exon inclusion enrichment index” value came to 0.643.

Turning to G5U G8U C9U G41C G42A, the “exon inclusion enrichment index” value turned out to be 0.229.

For G5U G8U C9U A45U G46A, the “exon inclusion enrichment index” value amounted to 0.0906.

For G5U G8U C9U A45U G46C, the “exon inclusion enrichment index” value came to 0.11.

For the variant G5U G8U C9U A45U G46U, the “exon inclusion enrichment index” value stood at 0.0271.

G5U G8U C9U G33A G34U: the “exon inclusion enrichment index” value came to 0.0046.

For the variant G5U G8U C9U G33A G34C, the “exon inclusion enrichment index” value stood at 0.0112.

Turning to G5U G8U C9U G33A G34A, the “exon inclusion enrichment index” value worked out at 0.0153.

In the case of G5U G8U C9U G41U G42A, the “exon inclusion enrichment index” value stood at 0.0453.

Regarding G5U G8U C9U G41U G42U, the “exon inclusion enrichment index” value amounted to 0.11.

In the case of G5U G8U C9U G41U G42C, the “exon inclusion enrichment index” value amounted to 0.47.

With G5U G8U C9U G41U, the “exon inclusion enrichment index” value was 0.17.

With G5U G8U C9U G41A, the “exon inclusion enrichment index” value was 0.0762.

Take G5U G8U C9U G41C: the “exon inclusion enrichment index” value amounted to 0.706.

Regarding G5U G8U C9U G26A U27C, the “exon inclusion enrichment index” value amounted to 0.838.

Consider G5U G8U C9U G26A U27A, for which the “exon inclusion enrichment index” value turned out to be 0.24.

As to G5U G8U C9U G26A U27G, the “exon inclusion enrichment index” value was found to be 0.338.

As to G5U G8U C9U A39U A40G, the “exon inclusion enrichment index” value was found to be 0.0207.

Consider G5U G8U C9U A39U A40U, for which the “exon inclusion enrichment index” value was determined as 0.0352.

As to G5U G8U C9U A39U A40C, the “exon inclusion enrichment index” value was found to be 0.287.

Consider G5U G8U C9U C44A A45U, for which the “exon inclusion enrichment index” value stood at 0.41.

Turning to G5U G8U C9U C44A A45G, the “exon inclusion enrichment index” value came to 0.326.

As for G5U G8U C9U C44A A45C, the “exon inclusion enrichment index” value was found to be 0.576.

G5U G8U C9U C22U: the “exon inclusion enrichment index” value was determined as 0.095.

As for G5U G8U C9U C22A, the “exon inclusion enrichment index” value turned out to be 0.117.

Take G5U G8U C9U C22G: the “exon inclusion enrichment index” value is 0.183.

Consider G5U G8U C9U G15A, for which the “exon inclusion enrichment index” value is 0.0439.

With G5U G8U C9U G15U, the “exon inclusion enrichment index” value worked out at 0.107.

Turning to G5U G8U C9U G15C, the “exon inclusion enrichment index” value amounted to 0.196.

As for G5U G8U C9U C24A, the “exon inclusion enrichment index” value is 0.116.

As to G5U G8U C9U C24G, the “exon inclusion enrichment index” value came to 0.199.

As for G5U G8U C9U C24U, the “exon inclusion enrichment index” value was found to be 0.0331.

On to G5U G8U C9U G15U C16A, for which the “exon inclusion enrichment index” value is 0.0344.

On to G5U G8U C9U G15U C16G, for which the “exon inclusion enrichment index” value is 0.064.

For the variant G5U G8U C9U G15U C16U, the “exon inclusion enrichment index” value was 0.0287.

Consider G5U G8U C9U G11C G12U, for which the “exon inclusion enrichment index” value turned out to be 0.0163.

As for G5U G8U C9U G11C G12A, the “exon inclusion enrichment index” value was determined as 0.0135.

For G5U G8U C9U G11C G12C, the “exon inclusion enrichment index” value was determined as 0.0331.

Regarding G5U G8U C9U A35C, the “exon inclusion enrichment index” value was determined as 0.0257.

With G5U G8U C9U A35U, the “exon inclusion enrichment index” value was 0.0145.

Take G5U G8U C9U A35G: the “exon inclusion enrichment index” value stood at 0.0347.

Consider G5U G8U C9U C36G A37C, for which the “exon inclusion enrichment index” value stood at 0.0336.

As to G5U G8U C9U C36G A37G, the “exon inclusion enrichment index” value came out at 0.0302.

With G5U G8U C9U C36G A37U, the “exon inclusion enrichment index” value was 0.0469.

Turning to G5U G8U C9U G33C G34A, the “exon inclusion enrichment index” value came to 0.0575.

For G5U G8U C9U G33C G34U, the “exon inclusion enrichment index” value stood at 0.0844.

Consider G5U G8U C9U G33C G34C, for which the “exon inclusion enrichment index” value amounted to 0.0648.

For the variant G5U G8U C9U A40G G41A, the “exon inclusion enrichment index” value stood at 0.0719.

Consider G5U G8U C9U A40G G41C, for which the “exon inclusion enrichment index” value was 0.76.

For G5U G8U C9U A40G G41U, the “exon inclusion enrichment index” value was 0.107.

Turning to G5U G8U C9U G38U A39C, the “exon inclusion enrichment index” value worked out at 0.088.

With G5U G8U C9U G38U A39G, the “exon inclusion enrichment index” value stood at 0.0405.

In the case of G5U G8U C9U G38U A39U, the “exon inclusion enrichment index” value turned out to be 0.00101.

As for G5U G8U C9U C18A C19A, the “exon inclusion enrichment index” value turned out to be 0.00397.

Consider G5U G8U C9U C18A C19G, for which the “exon inclusion enrichment index” value was found to be 0.00406.

On to G5U G8U C9U C18A C19U, for which the “exon inclusion enrichment index” value came out at 0.0019.

Regarding G5U G8U C9U A37U G38U, the “exon inclusion enrichment index” value came out at 0.0252.

Take G5U G8U C9U A37U G38C: the “exon inclusion enrichment index” value came to 0.0749.

Turning to G5U G8U C9U A37U G38A, the “exon inclusion enrichment index” value worked out at 0.0389.
